Test results from PMC10457384 (2023).

How the values were obtained:
Max 37-83 [1] = molecular target: T1, Max 37-83 (Homo sapiens, UniProt P61244); experiment: single-molecule SiNW-FET electrical recording (pH 6.5)
T1 chain: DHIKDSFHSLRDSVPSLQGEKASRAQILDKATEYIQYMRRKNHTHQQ

Max 37-83 [2] = molecular target: T1, Max 37-83; experiment: single-molecule SiNW-FET electrical recording (pH 7.4, 37 °C)

Kd (Max 37-83 [1]): 67 nM
Kd (Max 37-83 [2]): 205 nM
Binder: KRRTHNVLERQRRNELKRSFFALRDQIPELENNEKAPKVVILKKA (C-terminal cysteine added to c-Myc, immobilized on nanowire) [c-Myc 370-414]
